Assay results published in the nanobody polyreactivity screen of Harvey et al. (2022).

Assay: yeast display, Sf9 membrane polyspecificity reagent, FACS + sequencing; frameworks hold sequencing errors
In short: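 In a synthetic yeast display library (Saccharomyces cerevisiae BJ5465), nanobody expression was induced with galactose for 36–48 hours. FACS gates were set low and high (top ~1%) using anti-HA fluorescence for expression and streptavidin fluorescence for binding of the Sf9 membrane reagent. Each polyreactivity label is drawn from the gate of origin.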

| Sequence | polyreactivity (PSR sort gate) |
| --- | --- |
| QVQLVESGRGLVQAGGSLLLSCAASGSTFDVYAMGWYRQAPGKERELVAAIRSSGGSTFYADSVKGRFTISRDNAKNIVYLQMNSLKPEDTAVYYCAARSFVVSGYNKYYEYGDWGQGTQVTVSS | low polyreactivity |
| QVQLVESGGGLVQAGGSLRLSCAASGSIFDDYAMGWYRQAPGKEREFVADISYNGGTTYSADSVKGRFTISRDNAKNTVYLQMNSLKPEDTAVYYCAADRTNYTYYLPYDYWGPGTQVTVSS | low polyreactivity |
| QVQLVESGGGLVQAGGSLRLSCAASGSIFLYKAMGWYRQAPGKERELVADITSRGGSTYYADSVKGRFTISRDNAKNTVYLQMTSLKPEDTAVYDCNAVSRYVYGNGKNYYWGQGTHVTVSS | high polyreactivity |
| QVQLVESGGGLVQAGGSLRLSCAASGRIFGYAMGWCRQAPRKERELVAAITSSGGRTYYADSVKGRFTISRDNAKNTVYLQMNSLKPEDTAVYYCAKKWPVYRSYDYWGQGTQVTVSS | high polyreactivity |
| QVQLVESGGGLVQAGGSLRLSCAASGSIFVSYAMGWYRQAPGKERELVAAITVSGGSTYYADSVKGRFTISRDNAKNTVYLQMNSMKPEDTAVYYCAADSWDDWVVEFYYWGQGTQVTVSS | low polyreactivity |
| QVQLVESGGGLVQAGGSLRLSCAASGRIFGYYGMGWYRQAPGNERELVAAITYRGGSTYYADSVKGRFTISRDNAKNTVYLQMNSLKPEDTVVYYCGADGYSNYRYLYDYWGQGTQVTVSS | low polyreactivity |
| QVQLVESGGGLVQEGGSLRLSWAASGITFGGYAMGWYRQAPGKERELVAAISRGGGSTNYADSVKGRFTISLDNANNTVYLQMNSLKPEDTAVYYCNARRQNSRYDYWGQGTQVTVST | low polyreactivity |
| QVQLVESGGGLVQAGGSLRLSCAASGSTFFYNAMGWYRQAPGKERELVASINDRAGRTYYADSVKGRFTISRDNAKNTVYLQMNSLKPEDTAVYYCAAEPWYKFDYDYWGQGTQVTVSS | low polyreactivity |
| QVQLVESGGGLVQAGGSLRLSCAASGRTFYYYAMGWYRQAPGKERELVAAIRWRATSTFYADSVKGRFTISRDNAKNTVYLQMNSLKPEDTAVYYCATRGRWGYSGRSQGYSIYNYWGQGTKVTVSS | high polyreactivity |
| QVQLVESGGGLVQAGGSLRLSCAASGSIFVKYAMGWYRQATGKERELVASITGRGGSTYYADSVKGRFTISRDNAKNTVYFQMNSLIPEDTAVYYCAARVASRHGWHNYWGQGTQVTVSS | high polyreactivity |
| QVQLVESGGGLVQAGGSLRLSCAASGSIFASYVMGWYRQAPGKERELVAAITSRGTSTYYADSVKGRFTISRDNAKNTVYLHMNSLNPEDTAVYYCAARLYGSAPQHEYWGQGTQVTVSS | low polyreactivity |
| QVQLVESGGGLVQAGGSLRLSCAASGSIFLEYTMGWYRQAPGKERELVASISWGGGSTYYADSVKGRFTISRDNAKNTVFLQMNSLKPEDTAVYYCNKVGGDPVRGGYDYWGQGTQVTVSS | low polyreactivity |
| QVQLVESGGGLVQAGGSLRLSCAASGLTFTSYAMGWSRPAPGKERELVAAIDWSGGRTYYADSVKGRFTISRDNAKNTVYLQMNSLKPEDTAVYYCAAYSRNRALRFNYWGQGTQVTVSS | high polyreactivity |
| HVQLEESGGGLVQAGGSLRLSFAASGSIRKYYAMGSYIQAPAKERELDAAISGSGSTTYYADSVKGRFTISRDNAKNTVYLELNSLKPEDTAVYYCAAVYAFGNRYAYGSDSWGQGTQVTVSS | low polyreactivity |
| QVQLVESGGGLVQAGGSLRLSCAASGRIFTINAMGWYRQAPGKERELVASIRSTGGSTYYADSVKGRFTISRDNAKNTVYLQMNSLKPEDTAVYYCAADGGVAWGYGYWGQGTQVTVSS | low polyreactivity |
| QVQLVESGGGLVPAGGSLRLSWAASGRIFPRNTMGWYRQAPGKERELVAAISVSGGSTYYADSVKGRFTISRDNAKNTVYLQMNSLKPEDTAVYYSAARSARLEYYYWGQGTQVTVSS | high polyreactivity |
| QVQLVESGGGLVQAGGSLRLSCAASGSTFYSYAMGWSRQAPGKERELVARISGSGGSTYYADSVKGRFTISRDTAKNTVYLQMNSLKPEDPAVYYCAADDIYKYYQYYAFPYYRYDYWGQGTQVTVSS | low polyreactivity |
| QVQLVESGGGLVQAGGSLRLSCAASGSNFLPNAMGWYRQAPGKERELVAAISWSDDSTYYADSVKGRFTISRDNAKNTVDLQMNSLNPEDTAVYYCAADVGLWYDYWGQGTQVTVSS | high polyreactivity |
| QVQLVESGGGLVQAGGSLRLSCAASGFTFVQYAMGWYRQAPGKERELVATISKSGGITYYADSVKGRFTISRDNAKNTVYLQMNSLKPEDTAVYYCAAAWYYSSRGFHATWGHDYWGQGTQVTVSS | low polyreactivity |
| QVQLVESGGGLVQAGGSLRLSCAASGSTFAIYAMGWYRQAPGKERELVAAITGRSGSTYYADSVKGRFTISRDNAKNTVYLQMNSLKPEDTAVYYCAAQGGYRRTPYIHRDYWGQGTQVTVSS | high polyreactivity |
| QVQLVESGGGLVQAGGSLRLICAASGYILWKAMGWYRQAPGKERELVAAIRFRVGSTSYADSVKGRFTISRDNAKNTVYLQMNSLKPVYTAVYYCTARWWVIRPYQRHDYWGQGTQVTVSS | low polyreactivity |
| QVQLVESGAGLVQAGCRLRLSCASSGIIFSPNAIGWYRQAPGKERELVAAISKRGGSTYYADSVKGRFTISRDNAKNTVYLQLHSLKQEDTAVYYCAKRQQQSSGYDYWGQGTQVTVSS | high polyreactivity |

| Sequence | polyreactivity (PSR sort gate) |
| --- | --- |
| QVQLVESGGGLFQEGGSLRLSCAASGYTFKGNAMGWYRQAPGKDWELVAAISRSGASTYYADSVKGRFTISRDNAKNTVYLQMNSLKPEDTAVYYCAAEWYRGGEYRRYDYWGQGTQVTVSS | high polyreactivity |
| QVQLVESGGGLVQAGGSLRLSCAASGSIFRTNAMGWYRQAPGKERELVAAITGRGGSTYYADSVKGRFTISRNNAKNTVYLQMNSLKPEDTAVYDCAADTWYGYRYKYDYWGQGTQVTVSS | high polyreactivity |
| QVQLVESGGGLVQAGGSLRLSCAGSGSTFRSNAMGWYRQAPGKERELVAAISQRGGSTYYADSVKGRFTISRDNAKNTVYLQMNSLKPEDTAVYYCAARLYRGWRPFYYWGQGTQVSVSS | high polyreactivity |
| QVQHVESGGGLGQAGGSLRLSCAASGRTFDGNVKGWYIQAPGKERELVAAMTASGARTYYADSVKRRFTISRDNAKNTVYLQMNSLKPEDTAVYYCAAVCRRVSAWYYYWGQGTQVTVSS | high polyreactivity |
| QVQLVDSGGGLVQAGGSLRLSCAASGSTFGPYAMGWYRQAPGKERELVAAISGSGGTTYYADSVKGRFTMSRDNSKNTVYLQMNSLKPEDTAVYDCAAYPRWTYWGYVERYYWGQGTQVTVSS | high polyreactivity |
| QVQLVESGGGLVQAGGSLRLSCAASGSKFWGYAMGWYRKAAGKERELVAAITDSGGRTYYADSVKGRFTISRDNEKNTVYLQMNSLKPEDTAVYYCAADYYSQYYYYAVPDRDYWGQGTQVTVSS | low polyreactivity |
| QVQLVESGGGLVQAGGSLRLSCAASGLIFPYYAMGWNRQAPGKESELVAASSGSGGRTYYADSVKGRFTISRDNAKITVYLQMNSRKPEDTAVYYCAAAVLDSYTRYIWYIYDYWGQGTQVTVSS | high polyreactivity |
| QVQLVESGGGLVQAGGSLRLSCAASGITFKYYAMGWYRQAPGKEREFVASISARGGGTYYADSVKGRFTISRDNAKNTVYLQMNSLKPEDTAVYYCAVDYRYGYFVYVHYEYWGQGTQVTVSS | high polyreactivity |
| QVQLVQSGGGLVQAGGSLRLSCAASGRIFRLSGMGWYRQAPGKERELVAAITRGASTYYADSVKGRFTISRDNAKNTVYLELNSLKPEDTAVYYCAAEGLITGGYWHLYYWGHGTQVTVSS | high polyreactivity |
| QVQLVESGGGLVQAGGSLRLSCAASGIILYYYVMVWYRQEPGKEREFVAAINRSGTSTYYADSVKGRFTISRDNAKNTVYLQMNSLKPADTAVYYCAAERYWSGGVFDYDYWGQGTQVTVSS | high polyreactivity |
| QVQLVESGGGLVQAGGSLRLSCAASGFTFDYYAMGWYRQAPGKERELVAAISSSGGSTYYADSVKGRFTISRDNAKNTVYLQMNSLKPEDTAVYYCATGHSKKYDYWGQGTQVTVSS | high polyreactivity |
| QVQLVESGGGLVQAGGSLRLSCAASGIIYGIYAMGWYRQAPGKERELVAAITSRGGTTYYADSVKGRFTISRDNAKNTVYLQMNSLKPEDTAVYYCAARGRRYSHRVGYDWGQGTQVTVSS | high polyreactivity |
| QVHLEESGGGLVQAGGSLRLSSAASGSNFDYNAMGWYRQAPGKERELVAAISRTGGRTYYADSVKGRFTISRDNAKNTVYLQMNSLKPEDTAVYYWNAVNRIGGGDYDYWGLGTQVTVSS | low polyreactivity |
| QVQLVESGGGLVQAGGSLRLSCAASGFIFPLYAMGWYRQAPGKERELVAAITWRGDTTSYADSVKGRFTISRDNAKNTVYLQKNSLKPEDTAVDYCAAVRYPSGYDYWGQGTQVTVSS | high polyreactivity |
| QVQLVESGGGLVQAGGSLRLSCSASGSTFGYYAMGWYRQAPGKERELVAAITRSGGSTFYADSVKGRFTISRDNAKNTVYLQMNSLKPEDTAVYYCAATYWPYRPGYYYWGQGTQVTVSS | high polyreactivity |
| QVKLVESGGGLVQAGGSLRLSCAASGSIFGGNAMGWYRQAPGKEREFVARITKRGGSTDYADSVKGRFTISRDNAKNTVYLQMNSLKPEDTAVYYCATGWTSKVHYRYGYWGQGTQVTVSS | high polyreactivity |
| QVQLVESGGGLVQAGGSLRLSCAASGRTYRSYTMGWYRQAPGKERELVASISRRGGSTYYADSVKGRFTISRDNAKNTVYLQMNSLKPEDTAVYYCAAVNVYDAYEYWGQGTQVTVSS | high polyreactivity |
| QVQLVESGGGLVQAGGSLRLSCAASGFTFKGYAMGWYRQAPGKERELVAGITSGGRTYYADSVKGRFTISRDNAKNTVYLQMNSLKPEDTAVYYCAAVHYVAYYGYDYWGQGSQVTVSS | high polyreactivity |
| QVQLVESGGGLVQAGGSLRLSCAASGINFWYYAMVGYRQATGKERELDAAITGGSTYYADSVKGRFTISRDNAKNTVYLQMISLKQEDTAVYYCNADSVFEYWDYDYWGQGTQVTVSS | low polyreactivity |
| QVQLVESGGGLVQAGGSLRLSCAASGNTFPLNAMGWYRQAPGKERDLVAGISRTGGSTYYADSVKGRFTISRDNAKNTVYLQMNSLKPEDTAVYYCAAQSRYWVVRMDYWGQGTQVTVSS | high polyreactivity |
| QVQLVESGGGLVQAGGSLRLSCAASGGIFYYYTMGWYRQAPGKERELVAAINWSGGSTYYADSVKGRFTISRDNAKNTVYLQMNSLKPEDTAVYYCNAVYRHPVTYGYWGQGTQVTVSS | high polyreactivity |
